Results reported in paper PMC4158885 (The EMBO Journal, 2014).
Each block holds one molecule with its values, some of them ahead of it.

Columns and labels:
[1] = target: ctPan2 PID (Pan3 interaction domain) as used for surface plasmon resonance and isothermal titration calorimetry (Chaetomium thermophilum); assay: SPR; ctPan3 PKC with ctPan2 PID; who was immobilised is not shown (Supplementary Fig S7A–C)
[2] = target: ctPan2 PID (Pan3 interaction domain) as used for surface plasmon resonance and isothermal titration calorimetry (Chaetomium thermophilum); assay: ITC; ctPan3 PKC with ctPan2 PID; low protein concentrations, which limits the accuracy of the Kd
[3] = target: T1, ctPan3 PKC (Chaetomium thermophilum, UniProt G0S0Y3 205-640); assay: fluorescence polarization; 1 mM Mg2+; FP: 10 mM Tris pH 8.0, 50 mM NaCl, 1 mM MgCl2, 5 mM beta-mercaptoethanol, 20 nM RNA, temperature not stated; EMSA: deadenylation assay buffer (composition not in material), 0.1-3 uM complex, 40 ng RNA in 10 ul, 15 min RT; NMR: 150 uM protein, 150 uM RNA (HSQC); conditions: protein: recombinant; tags: GST-TEV construct (pGEX-TEV); chain copies: 2; label: 5' Cy3
T1 sequence: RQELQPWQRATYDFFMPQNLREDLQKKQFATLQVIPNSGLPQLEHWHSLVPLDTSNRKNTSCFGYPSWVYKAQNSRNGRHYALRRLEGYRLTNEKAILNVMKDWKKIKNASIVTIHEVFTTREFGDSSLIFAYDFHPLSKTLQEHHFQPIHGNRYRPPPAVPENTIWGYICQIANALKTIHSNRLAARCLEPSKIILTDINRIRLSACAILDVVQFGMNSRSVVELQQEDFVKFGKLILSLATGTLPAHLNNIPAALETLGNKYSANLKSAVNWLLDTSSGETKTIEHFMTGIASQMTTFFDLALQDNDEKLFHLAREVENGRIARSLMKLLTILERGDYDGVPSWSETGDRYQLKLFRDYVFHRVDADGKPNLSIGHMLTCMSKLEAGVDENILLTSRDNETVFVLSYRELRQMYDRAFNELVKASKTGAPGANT

[4] = target: T2, scPan3 zinc finger (Saccharomyces cerevisiae, UniProt P36102 1-41); assay: NMR chemical shift perturbation; Zn2+; negligible changes; FP: 10 mM Tris pH 8.0, 50 mM NaCl, 1 mM MgCl2, 5 mM beta-mercaptoethanol, 20 nM RNA, temperature not stated; EMSA: deadenylation assay buffer (composition not in material), 0.1-3 uM complex, 40 ng RNA in 10 ul, 15 min RT; NMR: 150 uM protein, 150 uM RNA (HSQC); conditions: protein: recombinant; tags: lipoyl domain/His fusion removed by TEV
T2 chain: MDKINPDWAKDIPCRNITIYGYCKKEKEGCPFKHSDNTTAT

[5] = target: T3, Saccharomyces cerevisiae Pan2 (scPan2), full length, of the recombinant scPan2–Pan3 complex (Saccharomyces cerevisiae, UniProt P53010 1-1115); assay: native MS; nanoESI-MS of the purified recombinant scPan2–Pan3 complex (5.5 mg/ml), buffer-exchanged into 200 mM ammonium acetate pH 8.0; conditions: both partners purified
T3 construct: Pan2, Saccharomyces cerevisiae
T3 sequence (looked up): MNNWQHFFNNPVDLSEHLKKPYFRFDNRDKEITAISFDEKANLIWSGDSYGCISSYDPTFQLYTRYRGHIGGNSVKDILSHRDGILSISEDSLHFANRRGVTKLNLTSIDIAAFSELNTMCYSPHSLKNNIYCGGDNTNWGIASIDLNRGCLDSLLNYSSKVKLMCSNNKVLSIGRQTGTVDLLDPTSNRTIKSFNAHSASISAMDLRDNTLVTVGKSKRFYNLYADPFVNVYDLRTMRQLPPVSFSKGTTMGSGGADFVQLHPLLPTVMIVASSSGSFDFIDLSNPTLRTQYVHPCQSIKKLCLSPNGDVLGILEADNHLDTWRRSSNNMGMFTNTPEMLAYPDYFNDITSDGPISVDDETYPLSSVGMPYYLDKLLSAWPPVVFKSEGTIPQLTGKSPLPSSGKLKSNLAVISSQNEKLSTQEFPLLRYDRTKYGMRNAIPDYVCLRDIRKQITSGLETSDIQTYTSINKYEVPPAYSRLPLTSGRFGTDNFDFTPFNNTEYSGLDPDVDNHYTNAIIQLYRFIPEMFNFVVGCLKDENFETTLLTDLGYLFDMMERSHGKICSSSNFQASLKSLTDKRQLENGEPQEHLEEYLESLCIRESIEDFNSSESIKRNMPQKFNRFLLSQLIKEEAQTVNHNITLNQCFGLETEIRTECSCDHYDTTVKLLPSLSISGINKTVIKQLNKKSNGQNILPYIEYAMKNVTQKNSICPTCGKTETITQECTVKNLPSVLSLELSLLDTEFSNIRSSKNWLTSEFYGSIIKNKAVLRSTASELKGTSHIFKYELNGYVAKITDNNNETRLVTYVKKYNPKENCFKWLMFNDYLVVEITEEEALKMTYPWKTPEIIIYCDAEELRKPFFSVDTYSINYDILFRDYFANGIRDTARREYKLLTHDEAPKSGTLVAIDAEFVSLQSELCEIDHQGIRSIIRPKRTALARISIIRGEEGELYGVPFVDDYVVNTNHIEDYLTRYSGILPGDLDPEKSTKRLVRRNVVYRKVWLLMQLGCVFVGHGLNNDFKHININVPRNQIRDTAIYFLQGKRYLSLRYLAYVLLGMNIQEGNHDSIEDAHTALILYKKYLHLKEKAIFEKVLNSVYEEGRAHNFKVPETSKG

[6] = target: the molecule itself; assay: as above
[7] = target: T2, scPan3 zinc finger; assay: NMR titration; Zn2+; apparent Kd per residue: 62 ± 4, 93 ± 11, 100 ± 13 (peaks of Trp8, Ala9, Asn16); FP: 10 mM Tris pH 8.0, 50 mM NaCl, 1 mM MgCl2, 5 mM beta-mercaptoethanol, 20 nM RNA, temperature not stated; EMSA: deadenylation assay buffer (composition not in material), 0.1-3 uM complex, 40 ng RNA in 10 ul, 15 min RT; NMR: 150 uM protein, 150 uM RNA (HSQC); conditions: protein: recombinant; tags: lipoyl domain/His fusion removed by TEV
[8] = target: T1, ctPan3 PKC; assay: fluorescence polarization; 1 mM Mg2+; possible G-quadruplex complicates interpretation; FP: 10 mM Tris pH 8.0, 50 mM NaCl, 1 mM MgCl2, 5 mM beta-mercaptoethanol, 20 nM RNA, temperature not stated; EMSA: deadenylation assay buffer (composition not in material), 0.1-3 uM complex, 40 ng RNA in 10 ul, 15 min RT; NMR: 150 uM protein, 150 uM RNA (HSQC); conditions: protein: recombinant, tags: GST-TEV construct (pGEX-TEV), chain copies: 2, label: 5' Cy3
[9] = target: ctPan2 E899A;ctPan3 PKC (Chaetomium thermophilum;Chaetomium …, UniProt G0SAK8;G0S0Y3 1-1170;205-640, E899A|); assay: fluorescence polarization; 1 mM Mg2+; FP: 10 mM Tris pH 8.0, 50 mM NaCl, 1 mM MgCl2, 5 mM beta-mercaptoethanol, 20 nM RNA, temperature not stated; EMSA: deadenylation assay buffer (composition not in material), 0.1-3 uM complex, 40 ng RNA in 10 ul, 15 min RT; NMR: 150 uM protein, 150 uM RNA (HSQC); conditions: protein: recombinant;recombinant; tags: Strep-II, His;GST-TEV construct (pGEX-TEV); copies: 1;2; label: 5' Cy3

Kd [1]: 10 nM
Kd [2]: 50 nM
dH [2]: -30 kcal/mol
stoichiometry N (Pan2 chain per Pan3 dimer) [2]: 1
Molecule: ctPan3 pseudokinase/C-terminal domain (PKC, residues 205–640), purified from E. coli (from UniProt G0S0Y3 205-640) (domain or fragment)

Molecule: CCCCCCCCCCCCCCC (ssRNA) [Cy3-C15 RNA]
Kd [3]: 2200 ± 1700 nM

Molecule: CCCCCCCCCCCCCCC (ssRNA) [C15 RNA (NMR)]
binding result [4]: no binding

stoichiometry N [5]: 2 scPan3 per scPan2
B1: Saccharomyces cerevisiae Pan3 (scPan3), full length, of the recombinant scPan2–Pan3 complex (natural protein, UniProt P36102 1-679, looked up)
chain: MDKINPDWAKDIPCRNITIYGYCKKEKEGCPFKHSDNTTATTINDVPPPIDVGEATTPTMTSVPKFNAKVSASFTPMTVGSDSLTTVTNTTSAATNATGNIAMAATSATASTVNPMINPIVNSSLVNNNNNNSNISISIPTTASSSNYDPFNAPIFTPSSTSSIHTNANAHSFPFPSIANSGGININATDDNSNNMSMANNVPPPMQPPPIESSNLKYPRIYPPPHSLLQYHLYAPEQPSSLKSLLKPNERSADQLFIPNNIREDLTKKNLSILQVFPSSGKVIPSIVQDYFNLVPLNFNNNDFLNKTTLFKVFSNYDGKAYVLKRLPNIDKSMNPNKISKIYQIWSKINCTNLIKFRDIFQTTKFGDLSICLVFDYYPNSLSLYDYHFVNFPKFPITNNYLWIYLVQLTNVINSIHSQNLSIGNTLNWRKVLITGDPGRIKLSHCNFMDLLFNDDTDTVVSSGGSTIEGQQQLDYKYLGELLFNLSINIENSNNNTAPKEYRLEEITPQSIDDMRQIDDKFKDVLKYLISDNGDSKKSIHDLTSHFYDKMFMVLESSQTYTEYMESVLSRELENGRLFRLVNKLNCIFGRIESRIDINWSESGTKFPIILFYDYVFHQVDSNGKPIMDLTHVLRCLNKLDAGIQEKLMLVTPDELNCIIISYKELKDLIESTFRSITQ
notes: Pan3, Saccharomyces cerevisiae; Two copies stand in the scPan2–Pan3 heterotrimer by nanoESI-MS
binding result [6]: binds

Molecule: UUUUUUUUUUUUUUU (ssRNA) [Cy3-U15 RNA]
Kd [3]: 1600 ± 600 nM

Molecule: AAAAAAAAAAAAAAA (ssRNA) [polyA15 RNA (NMR)]
Kd [7]: ~77.5 µM

Molecule: UUUUUUUUUUUUUUU (ssRNA) [U15 RNA (NMR)]
binding result [4]: no binding

Molecule: GGGGGGGGGGGGGGG (ssRNA) [Cy3-G15 RNA]
Kd [8]: 550 ± 50 nM

Molecule: AAAAAAAAAAAAAAAAAAAAAAAAA (ssRNA) [Cy3-A25 RNA]
Kd [3]: 620 ± 60 nM
Kd [9]: 270 ± 20 nM

Molecule: AAAAAAAAAAAAAAA (ssRNA) [Cy3-A15 RNA]
Kd [3]: 2100 ± 1400 nM
